# Where two headings read alike, the source gives them in different places.
# B1: chimeric DC8E8 (isotype not stated where tested) (antibody)
# VH: QVQLQQSGPELVKPGTSVKMPCKASGYIFTDYVISWVKQRTGQGLEWIGEIFPRSGSTYYNEKFKGKATLTADKSSNTAYMQLSSVTSEDSAVYFCARDYYGTSFAMDYWGQGTSVTVSS
# light: DIVMSQSPSSLAVSAGEKVTMSCKSSQSLLNSRTRKNYLAWYQQKPGQSPKLLIYWASTRESGVPDRFTGSGSGTDFTLTISSVQAEDLAVYYCKQSFYLRTFGGGTKLDIKRTVAAPSVFIFPPSDEQLKSGTASVVCLLNNFYPREAKVQWKVDNALQSGNSQESVTEQDSKDSTYSLSSTLTLSKADYEKHKVYACEVTHQGLSSPVTKSFNRGEC
# B2: chimeric DC8E8, human IgG1/kappa (antibody)
# heavy: not shown
# light: DIVMSQSPSSLAVSAGEKVTMSCKSSQSLLNSRTRKNYLAWYQQKPGQSPKLLIYWASTRESGVPDRFTGSGSGTDFTLTISSVQAEDLAVYYCKQSFYLRTFGGGTKLDIKRTVAAPSVFIFPPSDEQLKSGTASVVCLLNNFYPREAKVQWKVDNALQSGNSQESVTEQDSKDSTYSLSSTLTLSKADYEKHKVYACEVTHQGLSSPVTKSFNRGEC
# B3: chimeric DC8E8, human IgG4/kappa (antibody)
# heavy: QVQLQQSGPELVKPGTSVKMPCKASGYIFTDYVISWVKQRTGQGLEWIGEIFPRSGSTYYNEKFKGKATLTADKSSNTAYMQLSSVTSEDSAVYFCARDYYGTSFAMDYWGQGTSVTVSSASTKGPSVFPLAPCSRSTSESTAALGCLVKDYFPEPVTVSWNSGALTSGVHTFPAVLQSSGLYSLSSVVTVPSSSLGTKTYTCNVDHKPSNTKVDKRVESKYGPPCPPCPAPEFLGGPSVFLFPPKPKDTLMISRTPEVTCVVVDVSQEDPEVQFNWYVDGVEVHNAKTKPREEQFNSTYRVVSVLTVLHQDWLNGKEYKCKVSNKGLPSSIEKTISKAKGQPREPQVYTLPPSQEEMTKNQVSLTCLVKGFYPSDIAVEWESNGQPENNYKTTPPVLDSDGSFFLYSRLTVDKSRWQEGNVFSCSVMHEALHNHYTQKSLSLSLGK
# light: DIVMSQSPSSLAVSAGEKVTMSCKSSQSLLNSRTRKNYLAWYQQKPGQSPKLLIYWASTRESGVPDRFTGSGSGTDFTLTISSVQAEDLAVYYCKQSFYLRTFGGGTKLDIKRTVAAPSVFIFPPSDEQLKSGTASVVCLLNNFYPREAKVQWKVDNALQSGNSQESVTEQDSKDSTYSLSSTLTLSKADYEKHKVYACEVTHQGLSSPVTKSFNRGEC
# B4: AX016-IgG4, humanized DC8E8 RHD/RKB, IgG4 isotype (antibody)
# heavy: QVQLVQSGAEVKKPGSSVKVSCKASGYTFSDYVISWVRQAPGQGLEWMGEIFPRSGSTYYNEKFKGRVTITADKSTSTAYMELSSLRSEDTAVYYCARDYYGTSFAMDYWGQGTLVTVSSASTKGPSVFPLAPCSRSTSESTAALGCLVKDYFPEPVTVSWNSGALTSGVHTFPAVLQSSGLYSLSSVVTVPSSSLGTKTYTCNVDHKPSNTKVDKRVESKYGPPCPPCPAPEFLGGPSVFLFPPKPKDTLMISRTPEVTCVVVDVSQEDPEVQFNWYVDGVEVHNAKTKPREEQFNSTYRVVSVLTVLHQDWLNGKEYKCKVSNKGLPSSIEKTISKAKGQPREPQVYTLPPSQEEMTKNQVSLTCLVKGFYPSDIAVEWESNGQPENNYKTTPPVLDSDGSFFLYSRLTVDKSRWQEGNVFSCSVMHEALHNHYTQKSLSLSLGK
# light: DIVMSQSPLSLPVTPGEPASISCKSSQSLLNSRTRKNYLAWYLQKPGQSPQLLIYWASTRESGVPDRFTGSGSGTDFTLKISRVEAEDVGVYYCKQSFYLRTFGQGTKVEIKRTVAAPSVFIFPPSDEQLKSGTASVVCLLNNFYPREAKVQWKVDNALQSGNSQESVTEQDSKDSTYSLSSTLTLSKADYEKHKVYACEVTHQGLSSPVTKSFNRGEC
# B5: AX016-IgG1, humanized DC8E8 RHD/RKB, IgG1 isotype (antibody)
# heavy: not shown
# light: DIVMSQSPLSLPVTPGEPASISCKSSQSLLNSRTRKNYLAWYLQKPGQSPQLLIYWASTRESGVPDRFTGSGSGTDFTLKISRVEAEDVGVYYCKQSFYLRTFGQGTKVEIKRTVAAPSVFIFPPSDEQLKSGTASVVCLLNNFYPREAKVQWKVDNALQSGNSQESVTEQDSKDSTYSLSSTLTLSKADYEKHKVYACEVTHQGLSSPVTKSFNRGEC
# B6: AX004-IgG1, humanized DC8E8 RHD/RKA, IgG1 isotype (antibody)
# heavy: not shown
# light: DIVMTQSPLSLPVTPGEPASISCKSSQSLLNSRTRKNYLAWYLQKPGQSPQLLIYWASTRESGVPDRFTGSGSGTDFTLKISRVEAEDVGVYYCKQSFYLRTFGQGTKVEIKRTVAAPSVFIFPPSDEQLKSGTASVVCLLNNFYPREAKVQWKVDNALQSGNSQESVTEQDSKDSTYSLSSTLTLSKADYEKHKVYACEVTHQGLSSPVTKSFNRGEC
# B7: AX005-IgG4, humanized DC8E8 RHE/RKA, IgG4 isotype (antibody)
# heavy: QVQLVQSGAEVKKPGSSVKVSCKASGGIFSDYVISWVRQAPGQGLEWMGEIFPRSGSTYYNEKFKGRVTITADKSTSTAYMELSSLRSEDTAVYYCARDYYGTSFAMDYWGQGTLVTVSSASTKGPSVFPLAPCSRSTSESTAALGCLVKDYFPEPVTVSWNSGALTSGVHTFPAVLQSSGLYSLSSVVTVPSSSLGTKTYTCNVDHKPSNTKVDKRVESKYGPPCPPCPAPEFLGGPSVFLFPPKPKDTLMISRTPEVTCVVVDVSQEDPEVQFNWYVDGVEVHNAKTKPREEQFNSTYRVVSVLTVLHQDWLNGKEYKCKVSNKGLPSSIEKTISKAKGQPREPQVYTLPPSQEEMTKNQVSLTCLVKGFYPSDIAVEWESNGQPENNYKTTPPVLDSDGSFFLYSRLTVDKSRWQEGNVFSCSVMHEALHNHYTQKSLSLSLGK
# light: DIVMTQSPLSLPVTPGEPASISCKSSQSLLNSRTRKNYLAWYLQKPGQSPQLLIYWASTRESGVPDRFTGSGSGTDFTLKISRVEAEDVGVYYCKQSFYLRTFGQGTKVEIKRTVAAPSVFIFPPSDEQLKSGTASVVCLLNNFYPREAKVQWKVDNALQSGNSQESVTEQDSKDSTYSLSSTLTLSKADYEKHKVYACEVTHQGLSSPVTKSFNRGEC
# B8: AX004-IgG4, humanized DC8E8 RHD/RKA, IgG4 isotype (antibody)
# heavy: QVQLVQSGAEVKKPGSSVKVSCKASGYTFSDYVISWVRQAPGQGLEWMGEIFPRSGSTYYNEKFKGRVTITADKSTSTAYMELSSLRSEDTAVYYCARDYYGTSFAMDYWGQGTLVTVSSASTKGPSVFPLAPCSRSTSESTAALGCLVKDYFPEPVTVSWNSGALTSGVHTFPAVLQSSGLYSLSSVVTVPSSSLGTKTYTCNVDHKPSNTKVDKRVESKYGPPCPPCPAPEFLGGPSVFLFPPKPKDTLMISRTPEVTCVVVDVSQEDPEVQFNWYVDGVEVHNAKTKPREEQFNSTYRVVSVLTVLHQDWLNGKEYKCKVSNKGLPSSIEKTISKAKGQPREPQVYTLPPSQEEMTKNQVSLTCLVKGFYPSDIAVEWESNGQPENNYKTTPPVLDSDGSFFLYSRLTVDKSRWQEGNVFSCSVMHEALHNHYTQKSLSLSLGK
# light: DIVMTQSPLSLPVTPGEPASISCKSSQSLLNSRTRKNYLAWYLQKPGQSPQLLIYWASTRESGVPDRFTGSGSGTDFTLKISRVEAEDVGVYYCKQSFYLRTFGQGTKVEIKRTVAAPSVFIFPPSDEQLKSGTASVVCLLNNFYPREAKVQWKVDNALQSGNSQESVTEQDSKDSTYSLSSTLTLSKADYEKHKVYACEVTHQGLSSPVTKSFNRGEC
# B9: AX017-IgG1, humanized DC8E8 RHE/RKB, IgG1 isotype (antibody)
# heavy: not shown
# light: DIVMSQSPLSLPVTPGEPASISCKSSQSLLNSRTRKNYLAWYLQKPGQSPQLLIYWASTRESGVPDRFTGSGSGTDFTLKISRVEAEDVGVYYCKQSFYLRTFGQGTKVEIKRTVAAPSVFIFPPSDEQLKSGTASVVCLLNNFYPREAKVQWKVDNALQSGNSQESVTEQDSKDSTYSLSSTLTLSKADYEKHKVYACEVTHQGLSSPVTKSFNRGEC
# B10: AX017-IgG4, humanized DC8E8 RHE/RKB, IgG4 isotype (antibody)
# heavy: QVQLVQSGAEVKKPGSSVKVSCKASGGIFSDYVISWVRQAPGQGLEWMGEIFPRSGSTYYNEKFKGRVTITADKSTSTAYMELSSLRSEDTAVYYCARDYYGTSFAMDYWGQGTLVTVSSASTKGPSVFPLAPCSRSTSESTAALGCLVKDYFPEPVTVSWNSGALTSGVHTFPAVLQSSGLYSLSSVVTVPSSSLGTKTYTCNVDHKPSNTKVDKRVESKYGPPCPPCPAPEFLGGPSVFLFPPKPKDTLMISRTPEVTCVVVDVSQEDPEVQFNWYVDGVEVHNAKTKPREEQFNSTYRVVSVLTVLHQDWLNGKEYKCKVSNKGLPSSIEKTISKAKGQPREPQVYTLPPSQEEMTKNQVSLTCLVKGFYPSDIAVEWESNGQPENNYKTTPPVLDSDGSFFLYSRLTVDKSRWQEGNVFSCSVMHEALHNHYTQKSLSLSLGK
# light: DIVMSQSPLSLPVTPGEPASISCKSSQSLLNSRTRKNYLAWYLQKPGQSPQLLIYWASTRESGVPDRFTGSGSGTDFTLKISRVEAEDVGVYYCKQSFYLRTFGQGTKVEIKRTVAAPSVFIFPPSDEQLKSGTASVVCLLNNFYPREAKVQWKVDNALQSGNSQESVTEQDSKDSTYSLSSTLTLSKADYEKHKVYACEVTHQGLSSPVTKSFNRGEC
# B11: AX005-IgG1, humanized DC8E8 RHE/RKA, IgG1 isotype (antibody)
# heavy: not shown
# light: DIVMTQSPLSLPVTPGEPASISCKSSQSLLNSRTRKNYLAWYLQKPGQSPQLLIYWASTRESGVPDRFTGSGSGTDFTLKISRVEAEDVGVYYCKQSFYLRTFGQGTKVEIKRTVAAPSVFIFPPSDEQLKSGTASVVCLLNNFYPREAKVQWKVDNALQSGNSQESVTEQDSKDSTYSLSSTLTLSKADYEKHKVYACEVTHQGLSSPVTKSFNRGEC
# B12: mouse monoclonal antibody DC8E8 (antibody)
# heavy: QVQLQQSGPELVKPGTSVKMPCKASGYIFTDYVISWVKQRTGQGLEWIGEIFPRSGSTYYNEKFKGKATLTADKSSNTAYMQLSSVTSEDSAVYFCARDYYGTSFAMDYWGQGTSVTVSSAKTTPPSVYPLAPGSAAQTNSMVTLGCLVKGYFPEPVTVTWNSGSLSSGVHTFPAVLQSDLYTLSSSVTVPSSTWPSQTVTCNVAHPASSTKVDKKIVPRDCGCKPCICTVPEVSSVFIFPPKPKDVLTITLTPKVTCVVVDISKDDPEVQFSWFVDDVEVHTAQTKPREEQINSTFRSVSELPIMHQDWLNGKEFKCRVNSAAFPAPIEKTISKTKGRPKAPQVYTIPPPKEQMAKDKVSLTCMITNFFPEDITVEWQWNGQPAENYKNTQPIMDTDGSYFVYSKLNVQKSNWEAGNTFTCSVLHEGLHNHHTEKSLSHSPGK
# VL: DIVMSQSPSSLAVSAGEKVTMSCKSSQSLLNSRTRKNYLAWYQQKPGQSPKLLIYWASTRESGVPDRFTGSGSGTDFTLTISSVQAEDLAVYYCKQSFYLRTFGGGTKLDIK
# Key:
# [1] = biological target: T1, misdisordered truncated tau 151-391/4R (UniProt P10636 468-708); assay: SPR
# T1 sequence (P10636 468-708): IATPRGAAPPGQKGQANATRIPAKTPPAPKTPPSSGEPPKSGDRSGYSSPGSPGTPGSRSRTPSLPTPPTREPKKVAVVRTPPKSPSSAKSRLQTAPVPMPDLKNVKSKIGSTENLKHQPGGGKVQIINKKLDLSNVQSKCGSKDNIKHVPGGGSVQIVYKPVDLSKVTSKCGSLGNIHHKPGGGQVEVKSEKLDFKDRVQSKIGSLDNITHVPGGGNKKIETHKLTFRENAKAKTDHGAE
# [2] = biological target: T2, tau peptide 256-285; assay: ELISA
# T2 peptide: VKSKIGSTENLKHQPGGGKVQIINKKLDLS
# [3] = biological target: T3, tau peptide 352-380; assay: ELISA
# T3 peptide: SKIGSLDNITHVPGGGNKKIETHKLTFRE
# [4] = biological target: T4, tau peptide 282-311; assay: ELISA
# T4 peptide: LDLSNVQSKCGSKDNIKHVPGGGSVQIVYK
# [5] = biological target: T5, tau peptide 314-342; assay: ELISA
# T5 peptide: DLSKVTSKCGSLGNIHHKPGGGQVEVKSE
# [6] = biological target: T2, tau peptide 256-285; assay: ELISA
# [7] = biological target: T3, tau peptide 352-380; assay: ELISA
# [8] = biological target: T4, tau peptide 282-311; assay: ELISA
# [9] = biological target: T5, tau peptide 314-342; assay: ELISA
# [10] = biological target: T1, misdisordered truncated tau 151-391/4R; assay: SPR; remark: listed apart in the source
# [11] = biological target: T6, full length physiological tau 2N4R (UniProt P10636 1-758); assay: SPR
# T6 sequence (P10636 other isoform, or with tags, fused parts or gaps): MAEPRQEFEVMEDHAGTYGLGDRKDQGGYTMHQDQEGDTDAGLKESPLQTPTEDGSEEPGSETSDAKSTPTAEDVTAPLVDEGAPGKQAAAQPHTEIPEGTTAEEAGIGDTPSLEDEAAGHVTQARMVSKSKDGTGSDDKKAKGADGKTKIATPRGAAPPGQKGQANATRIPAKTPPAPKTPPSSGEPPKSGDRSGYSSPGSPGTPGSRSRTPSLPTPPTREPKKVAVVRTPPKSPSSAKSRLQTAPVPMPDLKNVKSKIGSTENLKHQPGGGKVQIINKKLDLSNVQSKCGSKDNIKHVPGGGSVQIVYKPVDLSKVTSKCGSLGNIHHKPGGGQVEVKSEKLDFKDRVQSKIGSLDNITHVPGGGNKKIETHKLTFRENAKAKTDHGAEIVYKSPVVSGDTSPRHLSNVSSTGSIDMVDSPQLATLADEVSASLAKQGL
# [12] = biological target: T1, misdisordered truncated tau 151-391/4R; assay: SPR; remark: listed apart in the source
# [13] = biological target: T1, misdisordered truncated tau 151-391/4R; assay: ELISA
# [14] = biological target: T6, full length physiological tau 2N4R; assay: SPR; IgG4
# [15] = biological target: T1, misdisordered truncated tau 151-391/4R; assay: SPR; IgG4
# [16] = biological target: T2, tau peptide 256-285; assay: ELISA; IgG4
# [17] = biological target: T3, tau peptide 352-380; assay: ELISA; IgG4
# [18] = biological target: T5, tau peptide 314-342; assay: ELISA; IgG4
# [19] = biological target: T6, full length physiological tau 2N4R; assay: ELISA; IgG1
# [20] = biological target: T1, misdisordered truncated tau 151-391/4R; assay: ELISA; IgG1
# [21] = biological target: T6, full length physiological tau 2N4R; assay: SPR; IgG1
# [22] = biological target: T1, misdisordered truncated tau 151-391/4R; assay: SPR; IgG1
# [23] = biological target: T2, tau peptide 256-285; assay: ELISA
# [24] = biological target: T3, tau peptide 352-380; assay: ELISA
# [25] = biological target: T4, tau peptide 282-311; assay: ELISA
# [26] = biological target: T5, tau peptide 314-342; assay: ELISA
# [27] = biological target: T1, misdisordered truncated tau 151-391/4R; assay: SPR; remark: listed apart in the source
binder,measurement,setting,value
B1,Kd,[1],10.4 nM
same,EC50,[2],0.0297 µg/mL
same,EC50,[3],0.0814 µg/mL
same,EC50,[4],0.00852 µg/mL
same,EC50,[5],0.0265 µg/mL
same,EC50,[6],0.0212 µg/mL
same,EC50,[7],0.087 µg/mL
same,EC50,[8],0.00731 µg/mL
same,EC50,[9],0.0173 µg/mL
same,Kd,[10],10.4 nM
same,Ka,[11],4.4e+07 M⁻¹
same,Ka,[12],4.2e+08 M⁻¹
B2,EC50,[13],0.0214 µg/mL
B3,EC50,[13],0.0507 µg/mL
B4,Ka,[14],6.6e+07 M⁻¹
same,Ka,[15],7.2e+08 M⁻¹
same,EC50,[4],0.00756 µg/mL
same,EC50,[16],0.0139 µg/mL
same,EC50,[17],0.085 µg/mL
same,EC50,[18],0.0153 µg/mL
B5,EC50,[19],0.0513 µg/mL
same,EC50,[20],0.0137 µg/mL
same,Ka,[21],1.9e+08 M⁻¹
same,Ka,[22],1.6e+09 M⁻¹
same,EC50,[23],0.0117 µg/mL
same,EC50,[24],0.0566 µg/mL
same,EC50,[25],0.00647 µg/mL
same,EC50,[26],0.0122 µg/mL
B6,EC50,[19],0.0532 µg/mL
same,EC50,[20],0.0147 µg/mL
same,Ka,[21],1.1e+08 M⁻¹
same,Ka,[22],1.6e+09 M⁻¹
same,EC50,[23],0.0121 µg/mL
same,EC50,[24],0.0587 µg/mL
same,EC50,[25],0.00598 µg/mL
same,EC50,[26],0.0118 µg/mL
B7,EC50,[4],0.00898 µg/mL
same,EC50,[17],0.397 µg/mL
same,EC50,[18],0.0745 µg/mL
B8,Ka,[14],6.5e+07 M⁻¹
same,Ka,[15],7.75e+08 M⁻¹
same,EC50,[4],0.0067 µg/mL
same,EC50,[16],0.0132 µg/mL
same,EC50,[17],0.0814 µg/mL
same,EC50,[18],0.013 µg/mL
B9,EC50,[24],0.883 µg/mL
same,EC50,[25],0.00766 µg/mL
same,EC50,[26],0.096 µg/mL
B10,EC50,[4],0.00901 µg/mL
same,EC50,[17],0.385 µg/mL
same,EC50,[18],0.0726 µg/mL
B11,EC50,[24],0.579 µg/mL
same,EC50,[25],0.0068 µg/mL
same,EC50,[26],0.0562 µg/mL
B12,Kd,[1],10.4 nM
same,Kd,[27],10.4 nM
same,EC50,[13],0.0448 µg/mL
same,EC50,[6],0.0433 µg/mL
same,EC50,[7],0.213 µg/mL
same,EC50,[8],0.0118 µg/mL
same,EC50,[9],0.039 µg/mL
same,Ka,[11],3.9e+07 M⁻¹
same,Ka,[12],1.9e+08 M⁻¹

# From patent US20180142007A1 (published 2018)
